Changes are numbered by the printed parent chain.
B1: AB243LO0326 (antibody, V domains shown)
VH: QVQLVQSGAEVKKPGASVKVSCKASGYTFTSYWMHWVRQAPGQGLEWIGVIYPGNSDTRYNQKFKGRVTITRDTSASTAYMELSSLRSEDTAVYYCTRDYYSNYVYYYAMDYWGQGTTVTVSS
VL: DIVMTQTPLSLPVTPGEPASISCRSSQSLVHPNRNTYLHWYLQKPGQSPQLLIYKVSNRFSGVPDRFSGSGSGTDFTLKISRVEAEDVGVYYCSQSTHVPWTFGQGTKLEIK
modifications: afucosylated form; in the LigandTracer assay DyLight 650 Maleimide on an engineered cysteine residue in the CH2 region
B2: humanised AB1020243 afuc (AB1020243-fgl) (antibody, V domains shown)
VH: B1 VH
VL: B1 VL with P32S, R34G
modifications: afucosylated form; in the LigandTracer assay DyLight 650 Maleimide on an engineered cysteine residue in the CH2 region
B3: AB243LO0331 (antibody, IgG1, V domains shown)
VH: B1 VH
VL: B1 VL with P32S, R34T
modifications: here or on the partner: afucosylated form

Tests used:
[1] = target: CCR9 (species and isoform not stated) (UniProt P51686); assay: cell-based or functional assay
[2] = target: human CCR9 (isoform not given) (human), P51686; assay: cell-based or functional assay
[3] = target: human CCR9 (isoform not given) (human), P51686
[4] = target: CCR9 (species and isoform not stated) (UniProt P51686)
[5] = target: CCR9 (species and isoform not stated) (UniProt P51686); assay: LigandTracer on CCR9-expressing CHO K1 cells, DyLight 650 labelled IgG, bivalent (1:2) fit, ~22 °C

Chain of human CCR9 (isoform not given) (human), P51686 (P51686 whole entry, canonical isoform): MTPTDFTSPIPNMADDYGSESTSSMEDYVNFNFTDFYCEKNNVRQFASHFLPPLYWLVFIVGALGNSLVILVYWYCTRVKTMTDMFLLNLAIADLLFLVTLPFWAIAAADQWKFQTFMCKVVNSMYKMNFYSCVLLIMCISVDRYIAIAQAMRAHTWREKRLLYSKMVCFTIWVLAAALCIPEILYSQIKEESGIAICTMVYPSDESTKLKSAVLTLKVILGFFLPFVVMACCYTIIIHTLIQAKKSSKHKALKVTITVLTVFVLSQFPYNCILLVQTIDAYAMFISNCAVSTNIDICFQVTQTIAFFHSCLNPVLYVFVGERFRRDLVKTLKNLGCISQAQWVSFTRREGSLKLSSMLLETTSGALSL

Binder | prevention of CCL25 induced CCR9 internalisation (FACS) [1] | EC50, killing of PBMC [2] | EC50, killing of human CD4+CCR9+ PBMC [2] | IC50 (read off the curve), HTRF IP-One, MOLT 4 cells, 50 nM CCL25 [3] | EC50, luminescence signal (CPS) against Log M; potency curve as in the NK cell activation reporter assay; the target cell line is not printed on the sheet [4] | Potency, NK cell activation (NK-92 CD16a NFAT luciferase reporter) [2] | koff [5]
B1 | 2 nM | 4 pM | 4 to 5 pM | 600 pM |  |  | 
B2 |  |  |  |  | 7.3e-09 M | 0.8 nM | 4.3e-05 s⁻¹
B3 |  |  |  | 600 pM |  |  | 

— patent publication US20250084174A1
